Patent US20080207498A1, “Methods for Treating Alzheimer's Disease” (priority 2005, published 2008)

Columns and labels:
Highly purified FcγIIb = experiment: reverse ELISA: PAP without peptide on FcγIIb-coated plate
[1] = molecular target: Human wt tau protein (441 residues; Sigma-Aldrich) (human) (UniProt P10636); experiment: reverse ELISA: PAP without peptide on plate coated with human wt tau
Highly purified FcγIIa = experiment: reverse ELISA: PAP without peptide on FcγIIa-coated plate
[2] = molecular target: Human wt β amyloid peptide 1-40 (amyloid precursor protein (APP) fragment 1-40; Sigma-Aldrich) (human); experiment: reverse ELISA: PAP without peptide on plate coated with human wt β amyloid peptide 1-40
[3] = molecular target: Purified human C1q (Quidel Corp.) (human) (UniProt P02745); experiment: reverse ELISA: PAP without competitor on C1q-coated plate
Highly purified FcγIII = experiment: reverse ELISA: PAP without peptide on FcγIII-coated plate

Sequence of Preformed immune complex of peroxidase and rabbit anti-peroxidase IgG (PAP complex) (P00433 31-338, one chain of several): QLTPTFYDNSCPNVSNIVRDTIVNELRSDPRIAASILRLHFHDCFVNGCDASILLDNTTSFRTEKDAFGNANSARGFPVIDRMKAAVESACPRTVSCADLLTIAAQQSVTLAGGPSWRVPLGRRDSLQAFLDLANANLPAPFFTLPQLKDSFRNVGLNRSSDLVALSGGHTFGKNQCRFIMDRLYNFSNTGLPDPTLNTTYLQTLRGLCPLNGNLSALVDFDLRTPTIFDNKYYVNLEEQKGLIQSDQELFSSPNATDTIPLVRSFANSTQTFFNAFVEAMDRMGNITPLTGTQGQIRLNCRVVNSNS
Sequence of Purified human C1q (Quidel Corp.) (human) (P02745 23-245 limits assumed, chain 1 of 3): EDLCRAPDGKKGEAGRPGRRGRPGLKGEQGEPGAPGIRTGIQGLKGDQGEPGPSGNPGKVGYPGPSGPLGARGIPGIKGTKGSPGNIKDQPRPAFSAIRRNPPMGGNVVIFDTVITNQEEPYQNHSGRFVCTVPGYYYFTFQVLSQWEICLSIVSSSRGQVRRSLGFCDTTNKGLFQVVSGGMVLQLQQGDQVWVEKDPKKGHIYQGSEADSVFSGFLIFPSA
Sequence of Purified human C1q (Quidel Corp.) (human) (P02746 28-253 limits assumed, chain 2 of 3, further chain): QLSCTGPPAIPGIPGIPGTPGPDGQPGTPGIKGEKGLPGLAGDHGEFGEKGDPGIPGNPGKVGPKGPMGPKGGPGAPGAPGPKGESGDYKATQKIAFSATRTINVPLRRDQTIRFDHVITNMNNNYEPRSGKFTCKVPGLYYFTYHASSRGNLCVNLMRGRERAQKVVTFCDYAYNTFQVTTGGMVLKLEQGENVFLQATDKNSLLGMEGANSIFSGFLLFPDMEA
Sequence of Purified human C1q (Quidel Corp.) (human) (P02747 29-245 limits assumed, chain 3 of 3, further chain): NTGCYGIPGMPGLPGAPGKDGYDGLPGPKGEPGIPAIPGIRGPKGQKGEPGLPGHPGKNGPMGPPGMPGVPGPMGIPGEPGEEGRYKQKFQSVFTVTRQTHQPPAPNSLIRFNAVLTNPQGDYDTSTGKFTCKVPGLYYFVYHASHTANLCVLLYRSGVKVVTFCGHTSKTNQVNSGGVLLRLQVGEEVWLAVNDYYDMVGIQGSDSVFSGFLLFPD
Sequence of Human wt tau protein (441 residues; Sigma-Aldrich) (human) (P10636 other isoform, or with tags, fused parts or gaps limits assumed): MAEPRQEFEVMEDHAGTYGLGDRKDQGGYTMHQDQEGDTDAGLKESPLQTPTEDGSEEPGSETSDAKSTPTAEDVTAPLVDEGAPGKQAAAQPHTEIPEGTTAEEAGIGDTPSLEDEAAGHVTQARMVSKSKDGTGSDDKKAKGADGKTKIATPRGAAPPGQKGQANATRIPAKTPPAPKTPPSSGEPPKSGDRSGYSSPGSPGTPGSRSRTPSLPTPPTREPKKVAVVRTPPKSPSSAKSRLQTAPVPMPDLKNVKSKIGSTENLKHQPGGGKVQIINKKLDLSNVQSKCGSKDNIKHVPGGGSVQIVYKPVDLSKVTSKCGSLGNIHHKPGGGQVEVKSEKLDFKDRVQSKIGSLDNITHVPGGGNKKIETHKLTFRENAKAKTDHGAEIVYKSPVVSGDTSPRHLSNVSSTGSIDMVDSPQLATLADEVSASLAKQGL

OD 405 nm (Highly purified FcγIIb): 1.39 OD
OD 405 nm [1]: 0.695 OD
OD 405 nm (Highly purified FcγIIa): 1.6 OD
OD 405 nm [2]: 3.28 OD
OD 405 nm [3]: 2.35 OD
OD 405 nm (Highly purified FcγIII): 1.59 OD
Substance: Preformed immune complex of peroxidase and rabbit anti-peroxidase IgG (PAP complex) (from UniProt P00433 31-338)
